Data from patent US20230340114A1 (IMMUNE ONC THERAPEUTICS, published 2023).
Positions count from the first letter of the chain named. Names may count otherwise. Where two headings read alike, the source gives them in different places.

T1: recombinant cyno CD3e (Acro, cat #CDE-C5226) (cynomolgus monkey, UniProt Q95LI5 22-117)
T1 sequence (looked up): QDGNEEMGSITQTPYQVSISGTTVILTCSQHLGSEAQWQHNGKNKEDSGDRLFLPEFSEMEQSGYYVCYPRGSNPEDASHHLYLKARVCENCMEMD

B1: 4-3ab (bispecific antibody, human IgG1, kappa, L234A L235A)
heavy 1: not shown
heavy 2: EVQLVESGGGLVQPGGSLRLSCAASGFSLSSSYWISWVRQAPGKGLEWIGSIDSGSVGITYYATWVKGRFTISRDNSKNTLYLQMNSLRAEDTAVYYCARHGDNWALDLWGQGTLVTVSSASTKGPSVFPLAPSSKSTSGGTAALGCLVKDYFPEPVTVSWNSGALTSGVHTFPAVLQSSGLYSLSSVVTVPSSSLGTQTYICNVNHKPSNTKVDKRVEPKSCDKTHTCPPCPAPEAAGGPSVFLFPPKPKDTLMISRTPEVTCVVVDVSHEDPEVKFNWYVDGVEVHNAKTKPREEQYNSTYRVVSVLTVLHQDWLNGKEYKCKVSNKALPAPIEKTISKAKGQPREPQVCTLPPSREEMTKNQVSLSCAVKGFYPSDIAVEWESNGQPENNYKTTPPVLDSDGSFFLVSKLTVDKSRWQQGNVFSCSVMHEALHNHYTQKSLSLSPG
light 1: DIVMTQSPDSLAVSLGERATINCKSSQSLLNSRTRKNYLAWYQQKPGQPPKLLIYWASTRQSGVPDRFSGSGSGTDFTLTISSLQAEDVAVYYCTQSHTLRTFGGGTKVEIKPDIQNPDPAVYQLRDSKSSDKSVCLFTDFDSQTQVSQSKDSDVYITDKCVLDMRSMDFKSNSAVAWSQKSDFACANAFQNSIIPEDTFFPSPESS
light 2: DIQMTQSPSTLSASVGDRVTITCRASQSISSWLAWYQQKPGKAPKLLIYKASTLASGVPSRFSGSGSGTEFTLTISSLQPDDFATYYCQHGYIRGDLDNVFGGGTKVEIKRTVAAPSVFIFPPSDEQLKSGTASVVCLLNNFYPREAKVQWKVDNALQSGNSQESVTEQDSKDSTYSLSSTLTLSKADYEKHKVYACEVTHQGLSSPVTKSFNRGEC
notes: LILRB4 arm from H7K3m5, CD3 arm from WO2019057099; human IgG1 constant domains with knob-in-hole and effector-reducing mutations; also called first-generation LILRB4/CD3 bispecific antibody No. 1
B2: 4-3ab Q1E S91A (bispecific antibody, human IgG1, kappa, L234A L235A)
heavy 1: not shown
heavy 2: B1 heavy 2
light 1: B1 light 1 with S203A
light 2: B1 light 2
notes: Second-generation 1+1 bispecific, expressed in CHO-K1; also called Bispecific 2; 4-3ab (second generation)
B3: 4ab-3 (bispecific antibody, human IgG1, kappa, L234A L235A)
heavy 1: not shown
heavy 2: EVQLVESGGGLVQPGGSLRLSCAASGFSLSSSYWISWVRQAPGKGLEWIGSIDSGSVGITYYATWVKGRFTISRDNSKNTLYLQMNSLRAEDTAVYYCARHGDNWALDLWGQGTLVTVLEDLKNVFPPEVAVFEPSEAEISHTQKATLVCLATGFYPDHVELSWWVNGKEVHSGVCTDPQPLKEQPALQDSRYALSSRLRVSATFWQNPRNHFRCQVQFYGLSENDEWTQDRAKPVTQIVSAEAWGRASDKTHTCPPCPAPEAAGGPSVFLFPPKPKDTLMISRTPEVTCVVVDVSHEDPEVKFNWYVDGVEVHNAKTKPREEQYNSTYRVVSVLTVLHQDWLNGKEYKCKVSNKALPAPIEKTISKAKGQPREPQVCTLPPSREEMTKNQVSLSCAVKGFYPSDIAVEWESNGQPENNYKTTPPVLDSDGSFFLVSKLTVDKSRWQQGNVFSCSVMHEALHNHYTQKSLSLSPG
light 1: not shown
light 2: DIQMTQSPSTLSASVGDRVTITCRASQSISSWLAWYQQKPGKAPKLLIYKASTLASGVPSRFSGSGSGTEFTLTISSLQPDDFATYYCQHGYIRGDLDNVFGGGTKVEIKPDIQNPDPAVYQLRDSKSSDKSVCLFTDFDSQTQVSQSKDSDVYITDKCVLDMRSMDFKSNSAVAWSQKSDFACANAFQNSIIPEDTFFPSPESS
notes: also called first-generation LILRB4/CD3 bispecific antibody No. 2
B4: 4ab3-4ab S91A (bispecific antibody, human IgG1, kappa, L234A L235A)
heavy 1: not shown
heavy 2: B3 heavy 2
light 1: not shown
light 2: B3 light 2 with S201A
notes: Second-generation 2+1 bispecific, expressed in CHO-K1; also called Bispecific 1; 4ab3-4ab (second generation)

Legend:
[1] = molecular target: T2, human LILRB4 expressed on cells (human, UniProt Q8NHJ6 22-448); experiment: cell-based or functional assay
[2] = molecular target: T3, recombinant human LILRB4 protein (Sino Biological, cat #16742-H08H) (human, UniProt Q8NHJ6 22-259); experiment: SPR (Biacore 8K), LILRB4 immobilized on CM5 chip, bispecific as analyte, 1:1 model
T3 construct: extracellular domain; also called LILRB4 recombinant protein (Sino Biological); Human LILRB4 ECD-his; not shown: his tag
Protocol: (§1) Binding affinities of first-generation bispecific antibodies to recombinant CD3e-CD3d heterodimer protein (Acro Biosystems) or LILRB4 recombinant protein (Sino Biological) were measured by surface plasmon resonance using a Biacore 8K instrument. Briefly, CD3e-CD3d or LILRB4 protein was immobilized on a CM5 chip with EDC and NHS according to standard protocols. […] The chip was regenerated using 10 mM glycine pH 1.5 as the regeneration buffer. The sensorgrams for reference channel Fc1 and buffer channel were subtracted from the test sensorgrams and the experimental data was fitted by 1:1 binding model.

[3] = molecular target: recombinant CD3e-CD3d heterodimer protein (Acro Biosystems) (UniProt P07766 23-126; P04234 22-105); experiment: SPR (Biacore 8K), CD3e-CD3d immobilized on CM5 chip, bispecific as analyte, 1:1 model
Protocol: as §1

[4] = molecular target: T2, human LILRB4 expressed on cells; experiment: FACS (Geo MFI) on normal human monocytes; panel assigned to monocytes by the order in legend paragraph 86
[5] = molecular target: T2, human LILRB4 expressed on cells; experiment: cell-based or functional assay; remark: listed apart in the source
[6] = molecular target: T2, human LILRB4 expressed on cells; experiment: FACS on LILRB4+ THP-1 cells, Alexa 647 anti-human IgG Fc detection
Protocol: Binding of first and second generation bispecifics to CD3 or LILRB4 was measured by FACS on Jurkat cells or THP-1 cells. To measure binding of bispecifics to THP-1 cells, THP-1 cells were first incubated with human Fc blocker (BD Pharmingen Catalog No. 564220) at 10 ug per one million cells at room temperature for 10 minutes, followed by incubated with serially diluted bispecifics for 30 minutes on ice. Cells were washed twice with BSA staining buffer (BD Pharmingen Catalog No. 554657) and incubated with secondary Alexa 647 conjugated anti-human IgG Fc monoclonal antibody (Biolegend Catalog No. 409306) at 5 ug/mL for 30 minutes on ice. After final wash, 7-AAD was applied to exclude dead cells. To measure binding of first generation bispecifics to Jurkat cells, each bispecific was diluted in buffer including 1% BSA (5-fold dilution series, 400 nM highest concentration) and incubated with cells for 30 minutes at 4° C. Then bispecifics were stained with Alexa 647 anti-human IgG Fc at 5 ug/mL at 4° C. for 0.5 hours before analysis.

CD3 on Jurkat cells = molecular target: T4, CD3 on Jurkat cells (UniProt P07766 23-207); experiment: FACS on CD3+ Jurkat cells; estimated, curve did not reach a plateau
T4 construct: whole, on cells; on cells it stands in the whole CD3/TCR complex; also called CD3+ Jurkat cells

[7] = molecular target: T1, recombinant cyno CD3e (Acro, cat …); experiment: BLI (Gator Bio), bispecific captured on anti-human Fc probe, cyno CD3e in solution, 1:1 global fit
Protocol: (§2) Binding affinities of second-generation bispecific antibodies were measured to recombinant human CD3e (Acro, cat #CDE-H5223), cyno CD3e (Acro, cat #CDE-C5226), human LILRB4 (Sino Biological, cat #16742-H08H), and cyno LILRB4 (Acro, cat #CDK-C5227) by Bio-Layer Interferometry (BLI) using an instrument from Gator Bio. Bispecific antibodies were captured using an immobilized anti-human Fc antibody (HFC) probe (Gator Bio, cat #PL168-160003) at 5 ug/mL load. […] Binding affinity constants were determined using a 1:1 fitting model (Global Fit) with Gator's data analysis software 1.6.1.1203, and the KD was calculated using the ratio Kdis/Kon.

[8] = molecular target: recombinant human CD3e (Acro, cat #CDE-H5223) (human, UniProt P07766 23-126); experiment: BLI (Gator Bio), bispecific captured on anti-human Fc probe, human CD3e in solution, 1:1 global fit
Protocol: as §2

[9] = molecular target: T5, recombinant cyno LILRB4 (Acro, cat #CDK-C5227) (cynomolgus monkey); experiment: BLI (Gator Bio), bispecific captured on anti-human Fc probe, cyno LILRB4 in solution, 1:1 global fit
T5 construct: extracellular domain; also called cynomolgus monkey LILRB4 ECD-his recombinant protein (ACRObiosystems)
Protocol: as §2

[10] = molecular target: T3, recombinant human LILRB4 protein (Sino …); experiment: BLI (Gator Bio), bispecific captured on anti-human Fc probe, human LILRB4 in solution, 1:1 global fit
Protocol: as §2

T4 sequence (P07766 23-207): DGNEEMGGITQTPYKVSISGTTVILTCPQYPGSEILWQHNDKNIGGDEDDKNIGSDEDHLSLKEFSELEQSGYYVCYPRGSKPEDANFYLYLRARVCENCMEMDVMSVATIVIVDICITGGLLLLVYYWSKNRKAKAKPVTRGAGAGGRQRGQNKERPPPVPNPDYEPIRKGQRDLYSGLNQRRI
recombinant CD3e-CD3d heterodimer protein (Acro Biosystems), sequence (P07766 23-126 limits assumed, chain 1 of 2): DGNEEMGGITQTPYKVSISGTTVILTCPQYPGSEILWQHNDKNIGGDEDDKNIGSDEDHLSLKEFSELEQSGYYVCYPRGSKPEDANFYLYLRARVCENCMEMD
recombinant CD3e-CD3d heterodimer protein (Acro Biosystems), sequence (P04234 22-105 limits assumed, chain 2 of 2): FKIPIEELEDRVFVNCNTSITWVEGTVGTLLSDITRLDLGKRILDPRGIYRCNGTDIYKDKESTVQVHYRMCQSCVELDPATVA
recombinant human CD3e (Acro, cat #CDE-H5223), sequence (P07766 23-126 limits assumed): as the sequence (P07766 23-126 limits assumed, chain 1 of 2) above

Binder | Monocyte (max %), Donor 1 [1] [%] | Monocyte (max %), Donor 2 [1] [%] | Monocyte (max %), Donor 3 [1] [%] | Monocyte killing EC50, Donor 2 [1] [pM] | T-cell cytotoxicity, THP-1 (max %) [1] [%] | T-cell cytotoxicity, THP-1 EC50 [1] [pM] | Kd [2] [pM] | Kd [3] [pM] | EC50 (read off the curve) [4] [pM] | Autologous monocyte killing EC50 [5] [pM] | T-cell cytotoxicity, MV4-11 EC50 [5] [pM] | T-cell cytotoxicity, THP-1 EC50 [5] [pM] | EC50 [6] [pM] | EC50 (CD3 on Jurkat cells) [pM] | Kd [7] [pM] | Kd [8] [pM] | Kd [9] [pM] | Kd [10] [pM] | Monocyte killing EC50, Donor 3 [1] [pM]
B1 | 43 | 41 | 13 | 9.4 | 98 | 0.36 | 190 | 49600 | ~800 |  |  |  |  |  |  |  |  |  | 
B2 |  |  |  |  |  |  |  |  |  | 26 | 2.5 | 4.3 | 1300 | ~854000 | 70 | 100 | 9530 | 840 | 
B3 | 43 | 34 | 32.5 | 29 | 98.6 | 0.084 | 270 | 33400 | ~400 |  |  |  |  |  |  |  |  |  | 9.25
B4 |  |  |  |  |  |  |  |  |  | 5.9 | 0.034 | 0.5 | 700 | ~257000 | 260 | 70 | 8820 | 890 | 
